{"source": "the nanobody polyreactivity screen of Harvey et al. (2022)"}
{"test": "yeast display, Sf9 membrane polyspecificity reagent, FACS + sequencing; frameworks hold sequencing errors", "outline": "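A synthetic nanobody library was expressed on Saccharomyces cerevisiae BJ5465 by galactose induction for 36–48 hours. The library was stained for 1 hour at 4 °C with 10% biotinylated, detergent-solubilized Sf9 membrane reagent and enriched with streptavidin microbeads before FACS. Low and high (top ~1%) gates were set on anti-HA fluorescence for expression and streptavidin fluorescence for reagent binding, and each polyreactivity label reflects the gate of origin.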"}
{"sequence": "QVQLVESGGGLVQAGGSLRLSCAASGRIFASYAMGWYRQAPGKERELVAAISLSGGSTYYADSVKGRFTISRDNAKNTVYLLMNSLKPEDNAVYYCNRLSNNREYVYWGQGTQLTVSS", "polyreactivity (PSR sort gate)": "high polyreactivity"}
{"sequence": "QVQLVESGGGLVQAGGSLRLSCAASGRIFASYAMGWYRQAPGKERELVAAITRSGGRTYYADSVKGRFTISRDNAKNTVYLQMNSLKPADTAVDYCAVDTVTRTVLVYGDRNDSWGQGTQVTVSS", "polyreactivity (PSR sort gate)": "high polyreactivity"}
{"sequence": "QVQLVESGGGLVQAGGSLRLSCAASGRIFASYTMGWYRQAPGKETELVAAISWRGDGTYYADSVKGRFTISRDYAKNTVYLQMNSLKPEDTAVYYCAADYVYYYHEYDYWGQGTQVTVSS", "polyreactivity (PSR sort gate)": "low polyreactivity"}
{"sequence": "QVQLVESGGGLVQAGGSLRLSCAASGRIFASYVMGWYRQAPGKERELVAAISYGGSRTYYADSVKGRFTISRDNAKNTVYLQMNSLKPEDTAVYYCNARSKFYYHYWMDYWGQGTQVTVSS", "polyreactivity (PSR sort gate)": "high polyreactivity"}
{"sequence": "QVQLVESGGGLVQAGGSLRLSCAASGRIFAVNAMGLYRQAPGKERELVARIRRIGGSTYYADSVKGRFTISRDNAKNTVYLQMNSQKPEDTAVYYCAAVSRVWLNLYNYWGQGTQVTVSS", "polyreactivity (PSR sort gate)": "high polyreactivity"}
{"sequence": "QVQLVESGGGLVQAGGSLRLSCAASGRIFAVNAMGWYRQAPGKERELVASIRWSGGSTYYADSVKGRFTISRDNAKNTVYLQMNSLKPEDTAVYYCAAVIYLWGQGTQVTVSS", "polyreactivity (PSR sort gate)": "high polyreactivity"}
{"sequence": "QVQLVESGGGLVQAGGSLRLSCAASGRIFAVNAMGWYRQAPGKERELVASIRWSGGSTYYADSVKGRFTISRDNAKNTVYLQMNTLKPEDTAVYYCNKVRGKTYYGEGDYWGQGTQVTVSS", "polyreactivity (PSR sort gate)": "high polyreactivity"}
{"sequence": "QVQLVESGGGLVQAGGSLRLSCAASGRIFAVNAMGWYRQAPGKERELVATINSGGNTNYADSVKGRFTISRDNAKNTVYLQMNSLKPVDTAVYYCAARAFSAWLEMDYWGQGTQVTVSS", "polyreactivity (PSR sort gate)": "low polyreactivity"}
{"sequence": "QVQLVESGGGLVQAGGSLRLSCAASGRIFAVYAMGWYRQAPGKERELVAAIRWSGVRTYYADSVTGRFTISRDTAKKTVYLQMNSLKPEDTAVYYCAADYSGQYYSPVSYLYDYWGQGTQVTVSS", "polyreactivity (PSR sort gate)": "high polyreactivity"}
{"sequence": "QVQLVESGGGLVQAGGSLRLSCAASGRIFAWYAMGWYRQAPGKERELVAAISSGGSTNYADSVKGRFTISRDNAKNTVYLQMNSLKPEDTAVYYCNRYPVRDTGGYWGQGTQVTVSS", "polyreactivity (PSR sort gate)": "low polyreactivity"}
{"sequence": "QVQLVESGGGLVQAGGSLRLSCAASGRIFAYNAMGWYRQAPGKERELVAAISWRVGCTYYADSVKGRFTISRDHAKNTVYLQMNSLKPEDTAVYYCNEAYYRHYQGDYWGQGTQVTVSS", "polyreactivity (PSR sort gate)": "high polyreactivity"}
{"sequence": "QVQLVESGGGLVQAGGSLRLSCAASGRIFAYNTMGWSRQAPGKERELVAVITSGGSTNYADSVKGRFTISRDNAKNTVYLQMNSLKPEDTAVYYCAKRPYCRSGGSRYDYWGQGTQVTVSS", "polyreactivity (PSR sort gate)": "high polyreactivity"}
{"sequence": "QVQLVESGGGLVQAGGSLRLSCAASGRIFAYYAMGWYRQAPGKERELVAAINRSGVRTYYADSVKGRFTISRDNAMNTVYFQINSLKPEDTAVYYCAAYVVGGEGDYWGQGTQVTVSS", "polyreactivity (PSR sort gate)": "high polyreactivity"}
{"sequence": "QVQLVESGGGLVQAGGSLRLSCAASGRIFAYYAMGWYRQAPGKERELVAAITSDGSSTYYADSVKGRFTISRDNAKNTVYLQMNSLKPEDTAVDYCAAGTYPFWDWIFDLWVDYWGQGTQVTVSS", "polyreactivity (PSR sort gate)": "high polyreactivity"}
{"sequence": "QVQLVESGGGLVQAGGSLRLSCAASGRIFAYYAMGWYRQAPGKERELVADITRSGARTYYADSVKGRFTISRDNANNTVYLQMNSLTPEDTAVYYCAAEGVRIGTRYDYWGQGTQVTVSS", "polyreactivity (PSR sort gate)": "high polyreactivity"}
{"sequence": "QVQLVESGGGLVQAGGSLRLSCAASGRIFAYYTMGWYRQAPGKERELVAAITNGGRTSYADSVKGRFTISRDNAKNTVYLQMNSLKPEDTAVYYCNAQQYRWPRVYYNYNYWGQGTQVTVSS", "polyreactivity (PSR sort gate)": "high polyreactivity"}
{"sequence": "QVQLVESGGGLVQAGGSLRLSCAASGRIFDANAMGWYRQAPGKERELVAAITYSGGRTYYADSVKGRFTISRDNAKNTVYLQMNSLKPVDTAVYYCAKRYAYIYDSWGQGTQVTVSS", "polyreactivity (PSR sort gate)": "low polyreactivity"}
{"sequence": "QVQLVESGGGLVQAGGSLRLSCAASGRIFDDNAMGWYRQAPGKERELVAAITGPDDSTDYADSVKGRFTISRDNAKNTVYLQMNSLKPEDTAVYYCAKDAGYWYYWNGYWGQGTQVTVSS", "polyreactivity (PSR sort gate)": "high polyreactivity"}
{"sequence": "QVQLVESGGGLVQAGGSLRLSCAASGRIFDDYAMGWYRQAPGKERELVAAISWSGGSTYYADSVKGRFTISRDNAKNTVYLQMNSLKPEDTAVYYCAAPYHSYKRIGYDYWGQGTQVTVSS", "polyreactivity (PSR sort gate)": "low polyreactivity"}
{"sequence": "QVQLVESGGGLVQAGGSLRLSCAASGRIFDEYAMGWYRQAPGKERELVAAIDTSTGSTYYADSVKGRFTISRDNAKNTVYLQMNSLKPEDTAVYYCAAEVYFGLFYVVFQYDYWGQGTQVTVSS", "polyreactivity (PSR sort gate)": "high polyreactivity"}
{"sequence": "QVQLVESGGGLVQAGGSLRLSCAASGRIFDGNAMGWYRQAPGKERELVAAISSRGARTYYADSVKGRFTISRDNAKNTVYLQMNSLKPEDTAVYYCNKDLDSLSGAEYDYWGQGTQVTVSS", "polyreactivity (PSR sort gate)": "high polyreactivity"}
{"sequence": "QVQLVESGGGLVQAGGSLRLSCAASGRIFDGYAMGWYRQAPGKERELVAAISSRGGRTYYADSVKGRFTISRDNAKNTVYLQMNSLKPEDTAVYYCAGDDPYGEGDYWGQGTQVTVSS", "polyreactivity (PSR sort gate)": "low polyreactivity"}
{"sequence": "QVQLVESGGGLVQAGGSLRLSCAASGRIFDGYAMGWYRQAPGKERELVATITGDGGSTYYADSVKGRFTISRDNAKNTVYLQMNSLKPEDTAVYYCAARLTRRLSWYLYNNDYWGQGTQVTVSS", "polyreactivity (PSR sort gate)": "high polyreactivity"}
{"sequence": "QVQLVESGGGLVQAGGSLRLSCAASGRIFDGYAMGWYRQAPGKESELVAAISSRGGRTYYADSVKGRFTISRDNAKNTVYLQMNSLKPEDTAVYYCAGDDPYGEGDYWGQGTQVTVSS", "polyreactivity (PSR sort gate)": "low polyreactivity"}
{"sequence": "QVQLVESGGGLVQAGGSLRLSCAASGRIFDGYVMGWYRQAPGKERELVAAISASGGSTYYADSVKGRFTISRDNAKNTVYLQMNSLKPEDTAVYYCATDALYGYDYWGQGTQVTVSS", "polyreactivity (PSR sort gate)": "high polyreactivity"}
{"sequence": "QVQLVESGGGLVQAGGSLRLSCAASGRIFDHYAMVWYRQAPGKERELVAAITRSGGITYYADSVKGRFTISRDNAKYTVYLQMNSLKPEDTAVYYCAALSYRYTDNFDYWGQGTQVTVSS", "polyreactivity (PSR sort gate)": "low polyreactivity"}
{"sequence": "QVQLVESGGGLVQAGGSLRLSCAASGRIFDIYALGWYRQAPGKERELVAAITWRGGSTYYADSVKGRFTISRDNAKNTVYLQMNSLKPEDTAVYYCAVDFITPRGSYYWGQGTQVTVSS", "polyreactivity (PSR sort gate)": "low polyreactivity"}
{"sequence": "QVQLVESGGGLVQAGGSLRLSCAASGRIFDIYAMGWYRQAAGKERELVAAIRLSSGTTYYADSVKGRFTISRDNAKNTVYLQMNSLKPEDTAVYYCGADFIRPPYDYWGQGTQVTVSS", "polyreactivity (PSR sort gate)": "high polyreactivity"}
{"sequence": "QVQLVESGGGLVQAGGSLRLSCAASGRIFDKYTMGWYRQAPGKERELVAAISKSGSGTFYADSVKGRFTISRDNAKNTVYLQMNSLKPEDTAVYYCARVYTVGTGRSWRLDYWGQGTQVTVSS", "polyreactivity (PSR sort gate)": "high polyreactivity"}
{"sequence": "QVQLVESGGGLVQAGGSLRLSCAASGRIFDLKAMGWYRQAPGERKGVGCLYFLVWWSTYYADSVKGRFTISRDNAKNTVYLQMNSLKPVDTAVYYCAAVYFYSWEGDGDYWGQGTQVTVSS", "polyreactivity (PSR sort gate)": "low polyreactivity"}
{"sequence": "QVQLVESGGGLVQAGGSLRLSCAASGRIFDLNAMGWYRQAPGKERELVAVIDSYGSTYYADSVKGRFTISRDNAKNTVYLQMNSQKPEDSAVYYCTKYWYSRHVRYWAYYAEQRYDYWGQGTQVTVSS", "polyreactivity (PSR sort gate)": "low polyreactivity"}
{"sequence": "QVQLVESGGGLVQAGGSLRLSCAASGRIFDLNAMGWYRQAPGKETELVAAISYSGGRTFYADSVKGRFTISRDNAKNTVYLQMNSLKPEDTAVYYCNARYGKPAYQYGMDYWGQGTQVTVSS", "polyreactivity (PSR sort gate)": "low polyreactivity"}
{"sequence": "QVQLVESGGGLVQAGGSLRLSCAASGRIFDLYTMGWYRQAPGKERELVAAIRWSDGSTYYADSVKGRFTISRDNAKNTDYLQMNSLKPEDTAVYYCAADSRTSYYNDDYDYWGQGTQVTVSS", "polyreactivity (PSR sort gate)": "low polyreactivity"}
{"sequence": "QVQLVESGGGLVQAGGSLRLSCAASGRIFDQYAMAWYRQAPGKERELVATISGSGGSTYYADSVKGRFTISRDNAKNTVYLQMNSLKPEDTAVYYCAAVSVSSWYDYWGQGTQVTVSS", "polyreactivity (PSR sort gate)": "low polyreactivity"}
{"sequence": "QVQLVESGGGLVQAGGSLRLSCAASGRIFDRNAMGWYRQAPGKERELVAAITRSGGRPYYADSVKGRFTISRDNAKNTVYLQMNSLKPEDTAVYYCNRGYPRSVVHYNSWGQGTQVTVSS", "polyreactivity (PSR sort gate)": "high polyreactivity"}
{"sequence": "QVQLVESGGGLVQAGGSLRLSCAASGRIFDRYDMGWYRQAPGKERELVAGITASGGSTYYADSVKGRFTISRDNAKNTVYLQMTSLKPEDTAVYYCAVVYGYRYYYWGQGTQVTVSS", "polyreactivity (PSR sort gate)": "high polyreactivity"}
{"sequence": "QVQLVESGGGLVQAGGSLRLSCAASGRIFDSYAMGWYRQAPGKERELVASITCSGGSTYADSVKGRFTSSRDNAKNTVYLQMNSLKPEDTAVYYFDYWGQGTQVTVSS", "polyreactivity (PSR sort gate)": "low polyreactivity"}
{"sequence": "QVQLVESGGGLVQAGGSLRLSCAASGRIFDTNAMGWYRQAPGKERELVAAITYSGGSTYYADSVKGRFTISRDNAKNTVYLQMNSLKPEDTAVYYCARVRPYSKYAYGYWGQGTQVTVSS", "polyreactivity (PSR sort gate)": "high polyreactivity"}
{"sequence": "QVQLVESGGGLVQAGGSLRLSCAASGRIFDTNVMGWYRQAPGTDRDFVAAIRWNGGSTNYADSVKGRFTISRDNSKNTVYLQMNSLKPEDTAVYYCAADGYIGWRHIYEYWGQATQVTVSS", "polyreactivity (PSR sort gate)": "low polyreactivity"}
{"sequence": "QVQLVESGGGLVQAGGSLRLSCAASGRIFDVNAMGWYRQAPGKERELVAAIRSGGRTNYADSVKGRFTISRDNAKNTVYLQMNSLKPEDTAVYYCAAVVWSSLDDYWGLGTQVTVSS", "polyreactivity (PSR sort gate)": "high polyreactivity"}
{"sequence": "QVQLVESGGGLVQAGGSLRLSCAASGRIFDVYAMGWYRQAPGKERALVAAITFSGGSTYYADSVKGRFTISRDNAKNTVYLQMNSLKPEDTAVYYCAAEYVDWFGDYDYWGQGTQVTVSS", "polyreactivity (PSR sort gate)": "high polyreactivity"}
{"sequence": "QVQLVESGGGLVQAGGSLRLSCAASGRIFDWYVMGWYRQAPGKERELVAAINSGVSTKYADSVKGRFTISRDNAKNTVYLQMNSLKPEDTAVYYCAAQSFSDYRRTGRKSSYYYWGQGTQVTVSS", "polyreactivity (PSR sort gate)": "low polyreactivity"}
{"sequence": "QVQLVESGGGLVQAGGSLRLSCAASGRIFDYNAMGWYRQAPVKERELVATITTGGSTYYADSVKGRFTISRDNAKNTVYLQMYSLKPEDTAVYYCAARRWYFHYFAYGYWGQGTQVTVSS", "polyreactivity (PSR sort gate)": "low polyreactivity"}
